B1: Homeodomain-interacting protein kinase 1 (Mus musculus), O88904 (parent)
chain: MASQLQVFSPPSVSSSAFCSAKKLKIEPSGWDVSGQSSNDKYYTHSKTLPATQGQASSSHQVANFNLPAYDQGLLLPAPAVEHIVVTAADSSGSAATATFQSSQTLTHRSNVSLLEPYQKCGLKRKSEEVESNGSVQIIEEHPPLMLQNRTVVGAAATTTTVTTKSSSSSGEGDYQLVQHEILCSMTNSYEVLEFLGRGTFGQVAKCWKRSTKEIVAIKILKNHPSYARQGQIEVSILSRLSSENADEYNFVRSYECFQHKNHTCLVFEMLEQNLYDFLKQNKFSPLPLKYIRPILQQVATALMKLKSLGLIHADLKPENIMLVDPVRQPYRVKVIDFGSASHVSKAVCSTYLQSRYYRAPEIILGLPFCEAIDMWSLGCVIAELFLGWPLYPGASEYDQIRYISQTQGLPAEYLLSAGTKTTRFFNRDPNLGYPLWRLKTPEEHELETGIKSKEARKYIFNCLDDMAQVNMSTDLEGTDMLAEKADRREYIDLLKKMLTIDADKRITPLKTLNHQFVTMSHLLDFPHSSHVKSCFQNMEICKRRVHMYDTVSQIKSPFTTHVAPNTSTNLTMSFSNQLNTVHNQASVLASSSTAAAATLSLANSDVSLLNYQSALYPSSAAPVPGVAQQGVSLQPGTTQICTQTDPFQQTFIVCPPAFQTGLQATTKHSGFPVRMDNAVPIVPQAPAAQPLQIQSGVLTQGSCTPLMVATLHPQVATITPQYAVPFTLSCAAGRPALVEQTAAVLQAWPGGTQQILLPSAWQQLPGVALHNSVQPAAVIPEAMGSSQQLADWRNAHSHGNQYSTIMQQPSLLTNHVTLATAQPLNVGVAHVVRQQQSSSLPSKKNKQSAPVSSKSSLEVLPSQVYSLVGSSPLRTTSSYNSLVPVQDQHQPIIIPDTPSPPVSVITIRSDTDEEEDNKYKPNSSSLKARSNVISYVTVNDSPDSDSSLSSPHPTDTLSALRGNSGTLLEGPGRPAADGIGTRTIIVPPLKTQLGDCTVATQASGLLSSKTKPVASVSGQSSGCCITPTGYRAQRGGASAVQPLNLSQNQQSSSASTSQERSSNPAPRRQQAFVAPLSQAPYAFQHGSPLHSTGHPHLAPAPAHLPSQPHLYTYAAPTSAAALGSTSSIAHLFSPQGSSRHAAAYTTHPSTLVHQVPVSVGPSLLTSASVAPAQYQHQFATQSYIGSSRGSTIYTGYPLSPTKISQYSYL

Variants of: B1
Conditions: with daxx_human DAXX
For K219A, the “effect of a mutation on the interaction” value was “decreasing interaction”.

Variants of: B1
Conditions: with daxx_mouse Daxx
For K219A, the “effect of a mutation on the interaction” value was “decreasing interaction”.

— IntAct's records for PubMed 12529400
